{
  "source": "the nanobody polyreactivity screen of Harvey et al. (2022)",
  "data": [
    {"assay": "yeast display, Sf9 membrane polyspecificity reagent, FACS + sequencing; frameworks hold sequencing errors", "method_in_brief": "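Galactose induction of a Saccharomyces cerevisiae BJ5465 synthetic nanobody display library ran 36–48 hours. The cells were then stained for 1 hour at 4 °C with 10% biotinylated, detergent-solubilized Sf9 membrane reagent, pulled down on streptavidin microbeads and FACS-sorted into low and high (top ~1%) gates on expression and reagent-binding fluorescence. Labels for polyreactivity follow the gate of origin.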", "values": [
      {"sequence": "QVQLVESGGGLVQAGGSLRLSCAASGFTFYRYAMGWYRQAPGKERELVAAITWSGGSTYYADSVKGRFTISRDNAKNTVYFQMNSLKPEDTAVYYCAASRWIFQVNDYDYWGQGTQGTVSS", "polyreactivity (PSR sort gate)": "high polyreactivity"},
      {"sequence": "QVQLVESGGGLVQAGGSLRLSCAASGFTFYRYAMGWYRQAPGKERELVAALSGSGGSTYYADSVKGPFTISRDNAKTTVYLQMNSLNPEDTAVYYCNTVWFYGAKYDYWGQGTQVTVSS", "polyreactivity (PSR sort gate)": "high polyreactivity"},
      {"sequence": "QVQLVESGGGLVQAGGSLRLSCAASGFTFYRYAMGWYRQAPGKERELVARISWSGGSTYYADSVKGRFTISRDNAKNTVYLQMNSLKPEDTAVYYCNARRLFESWKYDYWGQGTQVTVSS", "polyreactivity (PSR sort gate)": "high polyreactivity"},
      {"sequence": "QVQLVESGGGLVQAGGSLRLSCAASGFTFYRYGMGWYRQAPGKERELVAAINNDGTTNYADSVKGRFTISRDNAKNTVYLQMNSLKPEDTAVYYCAADYYRGRYSSRYDYWGQGTQVTVSS", "polyreactivity (PSR sort gate)": "low polyreactivity"},
      {"sequence": "QVQLVESGGGLVQAGGSLRLSCAASGFTFYRYVMGWYRQAPGKERELVAAISWNGGRTYYADSVKGRFTISRDNAKNTVYLQMNSLKPEDTAVYYCAAVPGSRSYGGDYWGQGTQVTVSS", "polyreactivity (PSR sort gate)": "high polyreactivity"},
      {"sequence": "QVQLVESGGGLVQAGGSLRLSCAASGFTFYRYVMGWYRQAPGTERELVAAITGGGRTYYADSVKGRFTISRDNAKNTVYLQMNSLKPEDTAVYYCNKAVPAWGLFDYWGQGTQVTVSS", "polyreactivity (PSR sort gate)": "low polyreactivity"},
      {"sequence": "QVQLVESGGGLVQAGGSLRLSCAASGFTFYSYAMGWYRQAPGKERELFAAITQSGGSTYYADSVKGRFTISRDNAKNTVYLQMNSLKPEDTAVYYCAADIYNDYDYGYYYWGQGTQVTVSS", "polyreactivity (PSR sort gate)": "low polyreactivity"},
      {"sequence": "QVQLVESGGGLVQAGGSLRLSCAASGFTFYSYAMGWYRQAPGKERELVAAISRSGGSTRYADSVKGRFTISRDNAKNTVYLQMNSLKPEDTAVYYCNAGKYRAYDYWGQGTQVTVSS", "polyreactivity (PSR sort gate)": "high polyreactivity"},
      {"sequence": "QVQLVESGGGLVQAGGSLRLSCAASGFTFYSYAMGWYRQAPGKERELVASISQSGGRTYYADSVKGRFTISRDNAKNTVYLQMNSLKPEDTAVYYCARQRSYGRSSYSYGYDYWGQGTKVTVSS", "polyreactivity (PSR sort gate)": "high polyreactivity"},
      {"sequence": "QVQLVESGGGLVQAGGSLRLSCAASGFTFYTFAMGLYRQAPGKERELVASITNGGGTYYADSVKGRFTNSRDNAKNTVYLQMNSLKPEDTAVFYCARRVYYWGRYKDEYNYWGQGTQVTVSS", "polyreactivity (PSR sort gate)": "high polyreactivity"},
      {"sequence": "QVQLVESGGGLVQAGGSLRLSCAASGFTFYWYAMGWYRQAPGKERELVAAISTSDTSTYADSVKGRFTISRDNAKNTVYLQMNSLKPEDTAVYYCNRRQYYYYGTSRYNYWGQGTQVTVSS", "polyreactivity (PSR sort gate)": "low polyreactivity"},
      {"sequence": "QVQLVESGGGLVQAGGSLRLSCAASGFTFYWYAMGWYRQAPGKERELVATINWRGDTYYADSVKGRFTISRDNAKNTVYLQMNSLKPEDTAVYYCAATKRLAPRPLRLGYGSYNFCGQGTQVTVSS", "polyreactivity (PSR sort gate)": "high polyreactivity"},
      {"sequence": "QVQLVESGGGLVQAGGSLRLSCAASGFTFYYNAMGCYRQAPGKERELVASISSNGTSTYYADSVKGRFTISRDNAKNTVYLQMNSLKPEDTAVYYCNVDIFDPRTYDYWGQGTQVTVSS", "polyreactivity (PSR sort gate)": "low polyreactivity"},
      {"sequence": "QVQLVESGGGLVQAGGSLRLSCAASGFTFYYNAMGWYRQAPGKERELVASISRGTSTNYADSVKGRFTISRDNAKNTVYLQMNSLKPEDTAVYYCAAKSYSDYDYWGQGTQVTVSS", "polyreactivity (PSR sort gate)": "low polyreactivity"},
      {"sequence": "QVQLVESGGGLVQAGGSLRLSCAASGFTFYYNAMGWYRQAPGKERELVSIRFRGGNTYYADSVKVRFTISRDNAKNTVYLQMNSLKPVDTAVYYCNADDRVSTYVDFDYWGQGTQVTVSS", "polyreactivity (PSR sort gate)": "low polyreactivity"},
      {"sequence": "QVQLVESGGGLVQAGGSLRLSCAASGFTFYYYAMGLYRQAPGKERELVAAITYSGGSTYYADSVKGRFTISRDNAKNTVYLQMNSLKPEDTAVYYCAAEAIPRLSWWYGVDYWGQGTQVTVSS", "polyreactivity (PSR sort gate)": "low polyreactivity"},
      {"sequence": "QVQLVESGGGLVQAGGSLRLSCAASGFTFYYYAMGWYRQAPGKERELVAAINGGSSTNYADSVKGRFTISRDNAKNTVYLQMNSLKPDDTAVYYCAAETRFYRNIDKIYFVLDRVDYWGQGTQVTVSS", "polyreactivity (PSR sort gate)": "low polyreactivity"},
      {"sequence": "QVQLVESGGGLVQAGGSLRLSCAASGFTFYYYAMGWYRQAPGKERELVAAISDSGGITSYADSVKGRFTISRDNAKNTVYLQMNSLKPEDTAVYYCAAEWSQWPYDYWGQGTQVTVSS", "polyreactivity (PSR sort gate)": "low polyreactivity"},
      {"sequence": "QVQLVESGGGLVQAGGSLRLSCAASGFTFYYYAMGWYRQAPGKERELVAGINSDGNTYYADSVKGRFTISRDNAKNNVYLQMNSLKPEDTAVYYCAASKLWPKNFVRHDYWGQGTQVTVSS", "polyreactivity (PSR sort gate)": "low polyreactivity"},
      {"sequence": "QVQLVESGGGLVQAGGSLRLSCAASGFTFYYYAMGWYRQAPGKERELVARITSGGSTYYADSVKGRFTISRDNAKNTVYLQMISLKPEDTAVYYCNVDVSVEVAYWGQGTQVTVSS", "polyreactivity (PSR sort gate)": "low polyreactivity"},
      {"sequence": "QVQLVESGGGLVQAGGSLRLSCAASGFTFYYYAMGWYRQAPGKERELVATISSGGSTYYADSVKGRFTISRDNAKNTVYLQMNSLKPEDTAVYYCAADYLIYYLYEGSIKYGYWGQGTQVTVSS", "polyreactivity (PSR sort gate)": "high polyreactivity"},
      {"sequence": "QVQLVESGGGLVQAGGSLRLSCAASGFTFYYYAMGWYRQEPGKERELVAAISSRGGSTYYADSVKGRFTISRDNAKNTVYLQMNSLKREDTPVYYCAAVYKYGGATYRSTSYYYWGQGTQVTVSS", "polyreactivity (PSR sort gate)": "high polyreactivity"},
      {"sequence": "QVQLVESGGGLVQAGGSLRLSCAASGFTFYYYPMGWYRQAPGKERELVAAISSSGGRTYYADSVKGRFTISRDNSKNTVYLQMNSLKPEDTAVYYCAADRYFRSYDYWGQGTQVTVSS", "polyreactivity (PSR sort gate)": "high polyreactivity"},
      {"sequence": "QVQLVESGGGLVQAGGSLRLSCAASGFTFYYYTMGWYRQAPGKERELVAAITLSGSTTYYADSVKGRFTISRDNAKNTVYLQMNSLKPEDTAVYYCAAGFSYEWGYPTFDYWGQGTQVTVSS", "polyreactivity (PSR sort gate)": "low polyreactivity"},
      {"sequence": "QVQLVESGGGLVQAGGSLRLSCAASGFTFYYYTMGWYRQAPGKERELVAGITSRGGSTTYADSVKGRFTISRDNAKNTVYLQMNSLKPEDTAVYYCNARWAVHSGYDYWGQGTLVTVSS", "polyreactivity (PSR sort gate)": "high polyreactivity"},
      {"sequence": "QVQLVESGGGLVQAGGSLRLSCAASGFTIAPDAMGWYRPAPGKERELVADISYSGGSKYYADSVKGRFTISRDTAKNTVYLQMNSLKPEDTAVYYCNAVIWWYWGRSYAYNYWGQGTQVTVSS", "polyreactivity (PSR sort gate)": "high polyreactivity"},
      {"sequence": "QVQLVESGGGLVQAGGSLRLSCAASGFTIGKNAMGWYRQAPGKERELVAAISLSGGRTYADSVKGRFTISRDNAKNTVYLQTNSLKPEDTAVYYCAANRYPKFYWGQGTQVTVSS", "polyreactivity (PSR sort gate)": "high polyreactivity"},
      {"sequence": "QVQLVESGGGLVQAGGSLRLSCAASGFTIGSNVMGWYRQAPGKERELVAAISSRGGSTYYADSVKGRFTISRDNAMNTVYLQMNSLKPEDTAVYDCAADAYYRGGWGDYWGQGTQVTVSS", "polyreactivity (PSR sort gate)": "high polyreactivity"},
      {"sequence": "QVQLVESGGGLVQAGGSLRLSCAASGFTIGYNVMGWYRQAPGKERELVATISWNGARTYYADSVKGRFTISRDNAKNTVYLQMNSLKPEDTAVYYCAARRYYRGEYDYWGQGTQVTVSS", "polyreactivity (PSR sort gate)": "low polyreactivity"},
      {"sequence": "QVQLVESGGGLVQAGGSLRLSCAASGFTIGYYVMGWYRQAPGKDRELVAAITRSGSRTYYADSVKGRFTISRDNAKNTVYLQMNSLKPEETAVYYCAADYKTFLRSFDYWGQGTQVTVSS", "polyreactivity (PSR sort gate)": "high polyreactivity"},
      {"sequence": "QVQLVESGGGLVQAGGSLRLSCAASGFTIHRYAMGWYRQAPGKERELVAAIRWSGGRTYYADSVKGRFTISRDNAKNTVYLQMNSLKPEDTAVYYCAARTNSPRGYGSDYWGKGTQVTVSS", "polyreactivity (PSR sort gate)": "high polyreactivity"},
      {"sequence": "QVQLVESGGGLVQAGGSLRLSCAASGFTIIRYAMGWYRPAPGKERELVATITRRGGSTYYADSVKGRFTISRDNAKNTVYLQMNSLKPEDTAVYYCAARIRPLYANVRYGYWGQGTQVTVSS", "polyreactivity (PSR sort gate)": "high polyreactivity"},
      {"sequence": "QVQLVESGGGLVQAGGSLRLSCAASGFTIISYTMGWYRQAPGKERELVAAIRGGGRTYYADSVKGRFTISRDNAKNTVYLQMNSQKPEDTAVYYCASRLRYGGHYDYWGQGTQVTVSS", "polyreactivity (PSR sort gate)": "high polyreactivity"},
      {"sequence": "QVQLVESGGGLVQAGGSLRLSCAASGFTIPTYTMGWYRQAPGKEREFVARITKRGGSTYYADSVKGRFTISRDNAKNTVYLQMNGLKPEDTAVYYCNARRYGKVVRSRYNYWGQGTQVTVSS", "polyreactivity (PSR sort gate)": "high polyreactivity"},
      {"sequence": "QVQLVESGGGLVQAGGSLRLSCAASGFTIPVYVMGWYRQAPGKERELVAAITRTGGRTYYADSVKGRFTISRDNAKNTVYLQMNSLKPEDTAVYYCAAFTHRYGISEFDYWGQGTQVTVSS", "polyreactivity (PSR sort gate)": "high polyreactivity"},
      {"sequence": "QVQLVESGGGLVQAGGSLRLSCAASGFTIQRYAMGWYRQAPGKERELVAAITSGGSTYYADSVKGRFTISRDNAKNTVYLQMNSLKPEDTAVYYCATRAVWSSWGRRYDSWGQGTQVTVSS", "polyreactivity (PSR sort gate)": "high polyreactivity"},
      {"sequence": "QVQLVESGGGLVQAGGSLRLSCAASGFTIRSYVMGWYRQAPGKEREFVAAISYRGGGTNYADSVKGRFTISRDNAKNTVYLQMNSLKPEDTAVYYCNARSGSSKSGYYYWGQGTQVTVSS", "polyreactivity (PSR sort gate)": "high polyreactivity"},
      {"sequence": "QVQLVESGGGLVQAGGSLRLSCAASGFTIRWYLMGWYRQAPGKERELVAAISWSGDRTYYADSVKGRFTISRDNAKNTVYLQMNSLKPEDTAVYYCNSLSAFQVDNYDYWGQGTQVTVSS", "polyreactivity (PSR sort gate)": "high polyreactivity"},
      {"sequence": "QVQLVESGGGLVQAGGSLRLSCAASGFTIRYYAMGWYRQAPGKERELVAAIRFSGGSTYYADSVKGRFTISRDNAKNTVYLQMNSLKPEDTAVYYCNARRRYGLDLGTFGYWGQGTQVTVSS", "polyreactivity (PSR sort gate)": "high polyreactivity"},
      {"sequence": "QVQLVESGGGLVQAGGSLRLSCAASGFTIRYYAMGWYRQAPGKERELVAAISSSGGSTYYADSVKGRFTISRDNAKNTVYLQMNSLKTEDTAVYYCAAYYHGRMDYWGQGTQVTVSS", "polyreactivity (PSR sort gate)": "high polyreactivity"},
      {"sequence": "QVQLVESGGGLVQAGGSLRLSCAASGFTIRYYTMGWYRQAPGKERELVAAITWSGGRTYYADSVKGRFTISRDNAKNTVYLQMNSLKPDETAVYYCAADVTKRASRDYYWGQGTQVTVSS", "polyreactivity (PSR sort gate)": "high polyreactivity"}
    ]}
  ]
}
